Tests used:
MUN W1165A = MUN W1165A (rat, UniProt Q62768 933-1407; Q62768 1453-1531, W1165A); experiment: pull-down
[1] = molecular target: Munc13-1 MUN domain (residues 933 to 1407, EF, 1453 to 1531) (rat, UniProt Q62768 933-1407; Q62768 1453-1531); experiment: ITC

| binding result (MUN W1165A) | fold change of the dissociation constant against Doc2B (13 to 37) [1] [fold] | stoichiometry N [1] | Binder |
| --- | --- | --- | --- |
| binds | 10 | 1 | GST-Doc2B FL (full-length Doc2B, residues 1 to 412) (natural protein, mouse, UniProt P70169 1-412, looked up) MTLRRRGEKATISIQEHMAIDVCPGPIRPIKQISDYFPRFPRGLPPTAAPRAPAPPDAPARSPAASASPRSPSDGARDDDEDVDQLFGAYGASPGPSPGPSPARPPAKPPEDEPDVDGYESDDCTALGTLDFSLLYDQENNALHCTISKAKGLKPMDHNGLADPYVKLHLLPGASKANKLRTKTLRNTLNPSWNETLTYYGITDEDMVRKTLRISVCDEDKFRHNEFIGETRVPLKKLKPNHTKTFSICLEKQLPVDKAEDKSLEERGRILISLKYSSQKQGLLVGIVRCAHLAAMDANGYSDPYVKTYLKPDVDKKSKHKTAVKKKTLNPEFNEEFCYEIKHGDLAKKTLEVTVWDYDIGKSNDFIGGVVLGINAKGERLKHWFDCLKNKDKRIERWHTLTNELPGAVLSD |
|  | 10 |  | GST-Doc2B 13 to 80 (Mid-L) (domain or fragment, mouse, UniProt P70169 13-80, looked up) SIQEHMAIDVCPGPIRPIKQISDYFPRFPRGLPPTAAPRAPAPPDAPARSPAASASPRSPSDGARDDD |

— publication PMC11100570 (Science Advances, 2024)
